From publication PMC11098500
Values joined by “and” are separate entries in the source; they are usually repeats but may differ in a detail not shown here. Equal values may be shown once.

Assays:
[1] = target: domestic dog ACE2 ectodomain (residues 1-614), Fc-tagged (domestic dog); experiment: SPR
[2] = target: raccoon dog ACE2 ectodomain (residues 1-614), Fc-tagged (raccoon dog) (UniProt B4XEP4); experiment: SPR

## SARS-CoV-2 RBD (residues 319-529), His-tagged (from UniProt P0DTC2 319-529) (domain or fragment)
[1]
  Kd: 468 nM

## SARS-CoV-2 RBD (prototypic strain, residues 319-529), His-tagged (from UniProt P0DTC2 319-529) (domain or fragment)
[2]
  Kd: 297 nM and 449 nM and 450 nM
[1]
  Kd: 518 nM and 524 nM and 361 nM
